Reference: paper PMC3215742

Experiments:
[1] = target: Renilla luciferase (RLuc)-fused tetherin (human) (UniProt Q10589)
[2] = target: Renilla luciferase (RLuc)-fused tetherin (human) (UniProt Q10589); assay: FRET or BRET; BRET in HEK293T cells cotransfected with RLuc-tetherin and Vpu-eYFP (or eYFP alone); media with 10 µM BIT225 or DMSO from 6 h after transfection; cells collected 48 h post-transfection, washed in PBS; coelenterazine H 5 µM; Synergy 4 plate reader

UniProt Q10589, sequence (Q10589 1-161): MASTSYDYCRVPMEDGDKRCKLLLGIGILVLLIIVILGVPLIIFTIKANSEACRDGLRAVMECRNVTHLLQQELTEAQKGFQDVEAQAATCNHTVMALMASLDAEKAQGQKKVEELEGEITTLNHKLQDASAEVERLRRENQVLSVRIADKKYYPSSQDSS

Substance: enhanced yellow fluorescent protein (eYFP)-fused Vpu (from UniProt P05919 1-82) (natural protein)
- tetherin cell surface expression (flow cytometry) in wt infected CEM-SS cells compared to uninfected populations; not affected by 10 µM BIT225 [1]: 75%
- tetherin cell surface expression (flow cytometry) in wt infected SupT1-tetherin^pos cells compared to uninfected controls; not affected by 10 µM BIT225 [1]: 70%
- BRET signal (DMSO, without BIT225) [2]: 52
- BRET signal (with 10 µM BIT225) [2]: 51
